Article PMC8586454, “Structural and Functional Insights Into Skl and Pal Endolysins, Two Cysteine-Amidases With Anti-pneumococcal Activity. Dithiothreitol (DTT) Effect on Lytic Activity” (Frontiers in Microbiology, 2021)

Tests used:
[1] = target: T1, Pal (Streptococcus phage Dp-1, UniProt O03979); assay: SAXS of choline-bound dimer; format: binding; details: 20 mM PB pH 8.0, 4 °C; saturating choline
T1 construct: full-length, untagged, E. coli pT7-7 (pPal, amplified from pMSP11); DEAE-cellulose purified with choline elution, dialysed
T1 sequence (O03979 1-296): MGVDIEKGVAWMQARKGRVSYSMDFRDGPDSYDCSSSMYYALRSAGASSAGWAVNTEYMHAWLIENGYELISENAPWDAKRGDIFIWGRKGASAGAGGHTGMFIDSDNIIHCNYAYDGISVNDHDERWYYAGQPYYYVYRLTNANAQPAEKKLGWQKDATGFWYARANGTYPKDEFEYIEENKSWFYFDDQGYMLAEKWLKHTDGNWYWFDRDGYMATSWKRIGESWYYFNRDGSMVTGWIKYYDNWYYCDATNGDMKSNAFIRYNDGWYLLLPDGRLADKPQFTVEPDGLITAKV

[2] = target: Skl endolysin (N-acetylmuramoyl-L-alanine amidase of the Streptococcus mitis prophage φSK137), wild type (Streptococcus mitis prophage φSK137); assay: AUC; sedimentation equilibrium, 20°C, single-species model; choline-saturated
[3] = target: Skl endolysin (N-acetylmuramoyl-L-alanine amidase of the Streptococcus mitis prophage φSK137), wild type (Streptococcus mitis prophage φSK137); assay: AUC; sedimentation velocity, 20°C, PB pH 6.5, under the conditions of the CD titration; choline saturating the lower affinity sites
[4] = target: Skl endolysin (N-acetylmuramoyl-L-alanine amidase of the Streptococcus mitis prophage φSK137), wild type (Streptococcus mitis prophage φSK137); assay: SAXS; 4°C, 20 mM PB (Pal) or 50 mM Tris–HCl (Skl) pH 8.0, 2–8 mg/ml protein extrapolated to infinite dilution, saturating choline
[5] = target: Skl Y264H mutant (Streptococcus mitis prophage φSK137); assay: AUC; sedimentation velocity, 20°C, PB pH 6.5, under the conditions of the CD titration; choline saturating the lower affinity sites
[6] = target: Skl Y264H mutant (Streptococcus mitis prophage φSK137); assay: AUC; sedimentation equilibrium, 20°C, 50 mM Tris–HCl pH 8.0, increasing choline
[7] = target: the molecule itself; assay: SAXS; 4°C, 20 mM PB (Pal) or 50 mM Tris–HCl (Skl) pH 8.0, 2–8 mg/ml protein extrapolated to infinite dilution, saturating choline
[8] = target: the molecule itself; assay: non-reducing SDS-PAGE (intermolecular disulfide); 0.36 mg/ml protein pretreated with 40 mM iodoacetamide, then 1% SDS, sample buffer without β-mercaptoethanol (SB), 12% gel, Coomassie stain

Q: For C[N+](C)(C)CCO [choline], which “SAXS of choline-bound dimer” value [1] is on record?
A: Its value is “Pal dimer in complex with choline”.

Q: How did the stoichiometry N [2] turn out when “Skl endolysin (N-acetylmuramoyl-L-alanine amidase of the Streptococcus mitis prophage φSK137), wild type (enzyme)” was run?
A: Its stoichiometry N is 2.

Q: What about the stoichiometry N [3] of the same molecule?
A: The stoichiometry N was 2.

Q: And the stoichiometry N [4]?
A: Its stoichiometry N is 2.

Q: Which percent remaining as monomer [5] does the source give for Skl Y264H mutant (enzyme) here?
A: Its percent remaining as monomer is 50%.

Q: And the stoichiometry N [6]?
A: Its stoichiometry N is 2.

B1: Pal endolysin (N-acetylmuramoyl-L-alanine amidase of the pneumococcal bacteriophage Dp-1), wild type (enzyme, UniProt O03979 1-296, looked up)
chain: MGVDIEKGVAWMQARKGRVSYSMDFRDGPDSYDCSSSMYYALRSAGASSAGWAVNTEYMHAWLIENGYELISENAPWDAKRGDIFIWGRKGASAGAGGHTGMFIDSDNIIHCNYAYDGISVNDHDERWYYAGQPYYYVYRLTNANAQPAEKKLGWQKDATGFWYARANGTYPKDEFEYIEENKSWFYFDDQGYMLAEKWLKHTDGNWYWFDRDGYMATSWKRIGESWYYFNRDGSMVTGWIKYYDNWYYCDATNGDMKSNAFIRYNDGWYLLLPDGRLADKPQFTVEPDGLITAKV
notes: Pal-coding region amplified from pMSP11; No tag; 1 μM equals 0.0345 mg/ml. 'Full length' rests on 'Pal-coding region was PCR amplified'; also called Pal WT; Pal NAM-amidase; source: E. coli BL21(DE3) or C41(DE3), pT7-7 derivative (pPal), purified (DEAE-cellulose, eluted with choline)
Q: B1 was tested. Which “stoichiometry N” value [7] did it give?
A: Its value is 2.

B2: Pal C112S mutant (enzyme, pneumococcal bacteriophage Dp-1, UniProt O03979 1-296, looked up)
chain: MGVDIEKGVAWMQARKGRVSYSMDFRDGPDSYDCSSSMYYALRSAGASSAGWAVNTEYMHAWLIENGYELISENAPWDAKRGDIFIWGRKGASAGAGGHTGMFIDSDNIIHSNYAYDGISVNDHDERWYYAGQPYYYVYRLTNANAQPAEKKLGWQKDATGFWYARANGTYPKDEFEYIEENKSWFYFDDQGYMLAEKWLKHTDGNWYWFDRDGYMATSWKRIGESWYYFNRDGSMVTGWIKYYDNWYYCDATNGDMKSNAFIRYNDGWYLLLPDGRLADKPQFTVEPDGLITAKV
modifications: free thiols blocked with iodoacetamide before SDS-PAGE
notes: Pal, NAM-amidase of the pneumococcal Dp-1 bacteriophage, with Cys112 changed to serine; source: E. coli BL21(DE3) or C41(DE3), pT7-7 derivative, purified (DEAE-cellulose, eluted with choline)
Q: Does B2 bind [8]?
A: Result: binds

B3: Pal C112S–C250S double mutant (enzyme, pneumococcal bacteriophage Dp-1, UniProt O03979 1-296, looked up)
chain: MGVDIEKGVAWMQARKGRVSYSMDFRDGPDSYDCSSSMYYALRSAGASSAGWAVNTEYMHAWLIENGYELISENAPWDAKRGDIFIWGRKGASAGAGGHTGMFIDSDNIIHSNYAYDGISVNDHDERWYYAGQPYYYVYRLTNANAQPAEKKLGWQKDATGFWYARANGTYPKDEFEYIEENKSWFYFDDQGYMLAEKWLKHTDGNWYWFDRDGYMATSWKRIGESWYYFNRDGSMVTGWIKYYDNWYYSDATNGDMKSNAFIRYNDGWYLLLPDGRLADKPQFTVEPDGLITAKV
modifications: free thiols blocked with iodoacetamide before SDS-PAGE
notes: Pal, NAM-amidase of the pneumococcal Dp-1 bacteriophage, with Cys112 and Cys250 changed to serine; source: E. coli BL21(DE3) or C41(DE3), pT7-7 derivative (made from pPal-C250S), purified (DEAE-cellulose, eluted with choline)
Q: Does B3 bind [8]?
A: Result: binds
